In general, IC50 refers to the concentration needed to halve the response being measured. As usually defined, the Ki is a dissociation constant, usually derived from enzyme kinetics or from competition with a known ligand. Read a high Ki as weaker binding.

Where only a bound is given, the exact number is not on record here.

Results on 18 substances are retold here after publication PMC5180416.

For the assay, the target named is WDR5 (WD (Trp-Asp) repeat domain 5) (UniProt P61964). Briefly: fluorescence polarisation. For orientation: In fluorescence polarisation assays a small probe gives low polarisation when free and higher when bound to something large.
For the substance ARE (peptide), the IC50 was greater than 100 µM. On the same count and under the same terms, the same measure for TRA (peptide): 2.9 µM. In the case of Ac-ARA-NH2 (peptide), the IC50 is 0.54 µM and the Ki was 0.12 µM. Regarding LRA (peptide), the 50% inhibitory concentration (IC50) is 10.8 µM and the inhibition constant (Ki) was found to be 2.3 µM.

VRA (peptide) came in with a 50% inhibitory concentration (IC50) of 0.24 µM and an inhibition constant Ki of 0.05 µM. Turning to FRA (peptide), the half-inhibitory concentration (IC50) is 3.1 µM. In turn, ARL (peptide) registered an IC50 of 34 µM and a Ki of 7.3 µM. With ARF (peptide), the IC50 was determined as 280 µM. On to AKA (peptide), for which the half-inhibitory concentration (IC50) was greater than 300 µM and the Ki is greater than 65 µM. For ARG (peptide) the same measures were 10.3 µM and 2.2 µM.

On to ARS (peptide), for which the concentration for half-maximal inhibition (IC50) came to 1.8 µM. ARC (peptide): the Ki worked out at 0.02 µM. In other words, the double-digit nanomolar range. CRA (peptide): the IC50 came to 1.83 µM and the inhibition constant Ki is 0.4 µM. As to SRA (peptide), the IC50 was 2.9 µM. Substance ART (peptide) showed an IC50 of 0.08 µM. ARV (peptide) yielded an IC50 of 0.11 µM and a Ki of 0.02 µM.

GRA (peptide) registered an IC50 of 77.4 µM and a Ki of 16.7 µM.

On to HRA (peptide), for which the 50% inhibitory concentration (IC50) worked out at 1.7 µM.
